Series [1] concerns the target GST-tagged EGFR-DEL2 (Y992A) protein.
For series [2], the target named is T1, EGFR-DEL4 (amino acid 977-1045) protein.
T1 chain: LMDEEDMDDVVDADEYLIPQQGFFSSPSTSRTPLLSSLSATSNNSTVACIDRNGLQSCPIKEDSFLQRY

Series [3] deals with catalytically-active recombinant GST-tagged human EGFR (active-rhEGFR; Upstate), P00533.
The target in series [4] is T2, GST-tagged EGFR-DEL3 (amino acid 1046-1186).
T2 chain: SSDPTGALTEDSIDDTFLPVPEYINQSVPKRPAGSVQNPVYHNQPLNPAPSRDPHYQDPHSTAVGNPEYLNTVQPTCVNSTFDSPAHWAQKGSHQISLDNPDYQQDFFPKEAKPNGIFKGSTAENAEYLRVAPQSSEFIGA

Series [5] deals with GST-tagged EGFR-DEL2 protein (amino acid 889-1045).
For series [6], the target named is T3, GST-tagged EGFR-DEL1 (amino acid 692-891).
T3 chain: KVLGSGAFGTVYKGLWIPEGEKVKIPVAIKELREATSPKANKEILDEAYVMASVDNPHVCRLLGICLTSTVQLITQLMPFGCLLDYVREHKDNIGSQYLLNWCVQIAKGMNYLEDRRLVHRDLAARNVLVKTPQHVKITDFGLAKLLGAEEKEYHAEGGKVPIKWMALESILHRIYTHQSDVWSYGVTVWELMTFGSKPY

B1: purified recombinant His-tagged TTK (protein)
chain: MESEDLSGRELTIDSIMNKVRDIKNKFKNEDLTDELSLNKISADTTDNSGTVNQIMMMANNPEDWLSLLLKLEKNSVPLSDALLNKLIGRYSQAIEALPPDKYGQNESFARIQVRFAELKAIQEPDDARDYFQMARANCKKFAFVHISFAQFELSQGNVKKSKQLLQKAVERGAVPLEMLEIALRNLNLQKKQLLSEEEKKNLSASTVLTAQESFSGSLGHLQNRNNSCDSRGQTTKARFLYGENMPPQDAEIGYRNSLRQTNKTKQSCPFGRVPVNLLNSPDCDVKTDDSVVPCFMKRQTSRSECRDLVVPGSKPSGNDSCELRNLKSVQNSHFKEPLVSDEKSSELIITDSITLKNKTESSLLAKLEETKEYQEPEVPESNQKQWQSKRKSECINQNPAASSNHWQIPELARKVNTEQKHTTFEQPVFSVSKQSPPISTSKWFDPKSICKTPSSNTLDDYMSCFRTPVVKNDFPPACQLSTPYGQPACFQQQQHQILATPLQNLQVLASSSANECISVKGRIYSILKQIGSGGSSKVFQVLNEKKQIYAIKYVNLEEADNQTLDSYRNEIAYLNKLQQHSDKIIRLYDYEITDQYIYMVMECGNIDLNSWLKKKKSIDPWERKSYWKNMLEAVHTIHQHGIVHSDLKPANFLIVDGMLKLIDFGIANQMQPDTTSVVKDSQVGTVNYMPPEAIKDMSSSRENGKSKSKISPKSDVWSLGCILYYMTYGKTPFQQIINQISKLHAIIDPNHEIEFPDIPEKDLQDVLKCCLKRDPKQRISIPELLAHPYVQIQTHPVNQMAKGTTEEMKYVLGQLVGLNSPNSILKAAKTLYEHYSGGESHNSSSSKTFEKKRGKK
As to B1, the “32P incorporation ([gamma-32P] ATP in vitro kinase assay, autoradiography)” value in series [1] is “This mutation remarkably reduced the intensity of lower-band, but did not reduce that of upper-band”. Besides, the “phosphorylation of EGFR Tyr-992 (in vitro kinase assay)” value in series [2] is on record as “EGFR-DEL4 (amino acid 977-1045) protein was not phosphorylated at Tyr-992 (data not shown)”. Besides, the “tyrosine phosphorylation of active-rhEGFR (in vitro kinase assay, anti-phospho-tyrosine western blot)” value in series [3] is recorded as “the phosphorylation of active-rhEGFR by TTK was not inhibited by AG1478”. In addition, the “tyrosine phosphorylation (in vitro kinase assay, western blot)” value in series [4] was “other tyrosine residues in GST-tagged EGFR-DEL1 (amino acid 692-891), EGFR-DEL2 and EGFR-DEL3 (amino acid 1046-1186) proteins were not phosphorylated at all”. In series [5], the “phosphorylation of EGFR Tyr-992 (in vitro kinase assay, western blot)” value is “Phosphorylation of EGFR Tyr-992 in GST-tagged EGFR-DEL2 protein (amino acid 889-1045) was promoted in a TTK-dose dependent manner” and the “phosphorylation site by MALDI tandem mass spectrometry after in vitro phosphorylation” value was “phosphorylation of EGFR Ser-967 was identified (data not shown)”. Moreover, in series [6], the “tyrosine phosphorylation (in vitro kinase assay, western blot)” value is “other tyrosine residues in GST-tagged EGFR-DEL1 (amino acid 692-891), EGFR-DEL2 and EGFR-DEL3 (amino acid 1046-1186) proteins were not phosphorylated at all”.

These data come from US20100009920.
